Experimental data from PMC6744678.

Target: Flag-CCDC74B wild-type (in HeLa cells) (human)
Test: cross-linking; HeLa cells expressing Flag-CCDC74B treated with 1 mM disuccinimidyl suberate (DSS) in DMSO for 30 min; anti-Flag Western blot

“Flag-CCDC74B wild-type (in HeLa cells) (natural protein)” showed a stoichiometry N of 2.
